Measured values from IntAct's records for PubMed 30262834.

Target: lrrt2_human LRRTM2 (UniProt O43300)
Sequence (O43300 whole entry): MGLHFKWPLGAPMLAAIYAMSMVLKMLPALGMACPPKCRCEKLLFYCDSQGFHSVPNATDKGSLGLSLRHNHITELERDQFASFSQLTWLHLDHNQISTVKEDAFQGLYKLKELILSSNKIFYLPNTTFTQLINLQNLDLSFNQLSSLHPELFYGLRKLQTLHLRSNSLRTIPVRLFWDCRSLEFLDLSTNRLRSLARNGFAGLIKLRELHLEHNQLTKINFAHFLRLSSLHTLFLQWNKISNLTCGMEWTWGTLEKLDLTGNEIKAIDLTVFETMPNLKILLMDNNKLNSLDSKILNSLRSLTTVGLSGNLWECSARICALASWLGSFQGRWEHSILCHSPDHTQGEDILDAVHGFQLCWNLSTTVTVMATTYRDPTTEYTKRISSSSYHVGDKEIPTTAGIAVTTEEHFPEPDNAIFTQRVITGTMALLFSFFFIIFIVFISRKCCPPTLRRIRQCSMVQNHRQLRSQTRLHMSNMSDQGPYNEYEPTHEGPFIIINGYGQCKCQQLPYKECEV

Chain of Neurexin-1-beta (Homo sapiens), P58400-1 D141A (P58400 other isoform, or with tags, fused parts or gaps D141A): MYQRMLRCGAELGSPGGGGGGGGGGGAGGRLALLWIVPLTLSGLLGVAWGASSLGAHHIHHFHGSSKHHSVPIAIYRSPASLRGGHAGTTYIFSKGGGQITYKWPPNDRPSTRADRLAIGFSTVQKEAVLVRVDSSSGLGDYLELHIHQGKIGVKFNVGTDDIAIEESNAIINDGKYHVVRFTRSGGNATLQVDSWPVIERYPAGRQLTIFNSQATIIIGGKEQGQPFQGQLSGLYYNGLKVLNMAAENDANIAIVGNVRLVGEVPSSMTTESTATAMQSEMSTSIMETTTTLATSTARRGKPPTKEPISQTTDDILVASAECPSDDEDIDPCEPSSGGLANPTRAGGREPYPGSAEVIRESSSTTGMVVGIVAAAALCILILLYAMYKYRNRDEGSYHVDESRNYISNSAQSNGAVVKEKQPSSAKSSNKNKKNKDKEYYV

With “Neurexin-1-beta (Homo sapiens), P58400-1 D141A” the “effect of a mutation on the interaction” value was “disrupting interaction strength”.
